Results taken from paper PMC6127865.

Target: T1, HisMBP-CDX2ΔCTD R214N (UniProt Q99626 1-245, R214N)
T1 sequence: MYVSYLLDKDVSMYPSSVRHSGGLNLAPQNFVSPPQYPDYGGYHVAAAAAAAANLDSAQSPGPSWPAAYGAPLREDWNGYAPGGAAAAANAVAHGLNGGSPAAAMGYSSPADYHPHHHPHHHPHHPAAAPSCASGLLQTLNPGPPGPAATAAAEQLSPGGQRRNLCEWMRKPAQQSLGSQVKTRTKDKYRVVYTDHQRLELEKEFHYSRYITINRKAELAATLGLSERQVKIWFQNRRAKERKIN
Assay: EMSA

B1: TP5921/TP5922 CDX2 consensus site duplex (dsDNA)
DNA 1: TAATCTCTCTGTTTATAGCTCTGACCT
DNA 2: AGGTCAGAGCTATAAACAGAGAGATTA
B1: no binding.
